Assay results taken from a protein production outcome set (Wang et al. 2014).

Test: label from the status in PepcDB records

| Sequence | protein production |
| --- | --- |
| MGHHHHHHSHMVDRLQSEPESIRKWREEQMERLEALDANSRKQEAEWKEKAIKELEEWYARQDEQLQKTKANNRVADEAFYKQPFADVIGYVTNINHPCYSLEQAAEEAFVNDIDESSPGTEWERVARLCDFNPKSS | not failed |
| MGHHHHHHSHMVTHSKFPAAGMSRPLDTSLRLKTFSSKSEYQLVVNAVRKLQESGFYWSAVTGGEANLLLSAEPAGTFLIRDSSDQRHFFTLSVKTQSGTKNLRIQCEGGSFSLQSDPRSTQPVPRFDCVLKLVHHYMPPPGAPSFPSPPTEPSSEVPEQPSAQPLPGSPPRRAYYIYSGGEKIPLVLSRPLSSNVATLQHLCRKTVNGHLDSYEKVTQLPGPIREFLDQYDAPL | failed |
| MGHHHHHHSHSEVAIKIDFDFAPGSFDDQYQGCSKQVMEKLTQGDYFTKDIEAQKNYFRMWQKAHLAWLNQGKVLPQNMTTTHAVAILFYTLNSNVHSDFTRAMASVARTPQQYERSFHFKYLHYYLTSAIQLLRKDSIMENGTLCYEVHYRTKDVHFNAYTGATIRFGQFLSTSLLKEEAQEFGNQTLFTIFTCLGAPVQYFSLKKEVLIPPYELFKVINMSYHPRGNWLQLRSTGNLSTYNCQLLKASSKKC | failed |
| MGHHHHHHSHSKKPYIVTIACTKGGSAKSTNAANIGAFCADHGLRTLLIDTDTQPTLSSYYSLAKTAPGGIYEFLLQRDVEPSHIVSQTSIKNLDLIQSNDPSNNVSHMLRNAPDGSIRFSHLIKSINNYDVIVIDTRGTRDITVDMSVLAADILFCPILPQILSAKEFIRGTIGMYQDLQTFESFGFKLPPLKAIANGVDNTNDVKFVMQKLHTLFANTFDESKTLLDFSIPYHVAYREAVTYALPVYRHSAVEYPVMQQLCC | failed |
| MGHHHHHHSHSSEVNATEEMSTLVNYIEPVKFKSFEAARKRNKCFEMSSFVETKAMEQLTKSPMEFVEYNKQQLSRIYPKGTRVDSSNYMPQLFWNVGCQLVALNFQTLDVAMQLNAGVFEYNGRSGYLLKPEFMRRPDKSFDPFTEVIVDGIVANALRVKVISGQ | failed |
| MGHHHHHHSHVAKVSQREEMVKKCLGELTEVCKSLGKVFGVHYFNIFNTVTLKKLAESLSSDPEVLLQIDGVTEDKL | failed |
| MGHRHQFGHGRRGGALMERALIIGASGWGREVLEQMRGDAGHGKDWLIGGFLDSRTNILDSYGVDTPIIGDPMNYLPQPDDVFVCAMGNPYDRHRYALPILQKGGRFIPICTDVRLGRRVHFGQGCFFGLMVHSGPDVRIGDFVTIHAQSMLGHDVRIGDYVHVGAMAFMGGGVQLGDFVTVHPRATLMPGVKVGDGAVIGAGAVVLKDVPAGATVFGNPAKIVFNKNIPTD | failed |
| MGIFEPFRAIGYITSTVPFSVQRLGTETFVTVSVGKAFQIYNCAKLNLVIISPQLPKKIRALASYRDYTFVAFGNEIAVFRRAHQVATWSKHVAKVDLLLVFGEHVLSLDVEGNMFIWAFKGIEEHLAPIGNLQLTGKFTPTSIVHPDTYLNKVLVGSQEGPLQLWNINTKKMLYQFKGWGSSVTSCVSSPALDVVAIGCADGKIHVHNIKLDEEIVTFEHASRGAVTALSFSTDGRPLLASGGSFGVISIWNLNKKRLQSVIRDAHDSSIISLNFLANEPVLMSASADNSLKMWIFDTNDGDPRLLRFRSGHSAPPLCIRFYSNGRHILSAGQDRAFRLFSVIQEQQSRELSQRHISRRAKKLRLKEEELKLKPVVSFDCAEIRERDWCNVVTCHMDTAEAYVWRLQNFVLGEHILKPCPENPTPIKACAISACGNFAVVGTAGGWIERFNLQSGISRGSYFDMSEKRRYAHDGEVIGVACDSTNTLMISAGYHGDLKVWDFKKRELKSQWDVGCSLVKIVYHRVNGLLATVADDFVIRLYDVVTLKMVREFRGHTDRITDLCFSEDGKWVISSSMDGSLRIWDVILAKQIDGVHVDVPITALSLSPNMDVLATAHSDQNGVYLWVNQSMFSGLPSVESYASGKDVVNVKLPSVSALTSSEADDDMDRQVLENSEALQASSFSISQKQIPELVTLSLLPKSQWQSLINLDIIKARNKPIEPPKKPEKAPFFLPSIPSLSGDILFKANDSEADGENEENNKKDQNSMKNFDALESPFSKHLKSSWDSKHFLDFTNYMKSLSPSALDMELRMLEIIDEDVEEELIKRPEFILIGQLLDYFINEVSCKNDFEFMQAVVKLFLKIHGETIRCHPSLQEKAKKLLETQSLVWQKMEKLFQSTRCIVTFLSNSQF | failed |
| MGIKEKEIELETLKREIAQAEASLEQDFIKYMVDKTNEKVEDLFFSNKPEFYRFVFTEQNNYLREKLTDKVGRAMDLSDEIQRDKTENESLENGTKFKKRFVFELQNDLIFLRTKRNTYSAKTEHENFQERLLAAKDTFRLIKANDFKTKIYPYQITLRLKTKHIIVFRWLKKEIIKRFVKKDLFTETLSIKITDKKGQKYALIANYNHASDIIELMLDDKTYTTTLYYQKPLFDLIKNSNFNLTIKDNTLEINQAKKRLFV | failed |
| MGIKQYSQEELKEMALVEIAHELFEEHKKPVPFQELLNEIASLLGVKKEELGDRIAQFYTDLNIDGRFLALSDQTWGLRSWYPYDQLDEETQPTVKAKKKKAKKAVEEDLDLDEFEEIDEDDLDLDEVEEELDLEADDFDEEDLDEDDDDLEIEEDIIDEDDEDYDDEEEEI | failed |
| MGIKQYSQEELKEMALVEIAHELFEEHKKPVPFQELLNEIASLLGVKKEELGDRIAQFYTDLNIDGRFLALSDQTWGLRSWYPYDQLDEETQPTVKAKKKKAKKAVEEDLDLDEFEEIDEDDLDLDEVEEELDLEADDFDEEDLDEDDDDLEIEEDIIDEDDEDYDDEEEEIK | not failed |
| MGILDKVKNLLSQNADKVETVINKAGEFVDEQTQGNYSDAIHKLHDAASNVVGMSDQQS | not failed |
| MGIRNSKTFTSTDIATYYDVSEDHYMYFWDLNQSHSLHYGYWDASTKTFREALANINRVLAEKASITAGTRVLDAGCGVGGSSIWLAKNKQANVTGITVSKKQAARANTSAAAVNPGGTAVFDVQDYTNTPYHSESFDVVWAIESVCHAANKEDFIKEAYRLLKPGGQLIMADFFIVKDGNADDQRSIDAWGHGWAVPFFEKKDAFQHMLLKAGFNTADMIDSTEHIRRSAKRLYYAFFPGWIISKLYNLVNRRTTEFSKNNVYTAYYQYKTLKKELWKYYIVHAKK | failed |
| MGISVASSNKPNNYDRYFNIYGVVIAAVLAAIAAIEIFEIFELPFEKYFAGIDIASIFSFTTKVVSDSSYVGIFILMTLESMFIPIPSEVILPLSGFLVYQGSFNFAVVLADTIIASMVGSFIDYFLGLYLGRPIIVKILSYFSISEDSLSRAETWIDKMGSFSVFLARFIPGIRSLISLPAGMLKMKMWLFALMTFLGSFIWSFSLIYLGYSAGPYWSVAVKNFSALLDQIIIDVVFLASLAYIFYYIFLKIKRRQHALD | failed |
| MGKIMEWAARSDHLGGIPRNTVIMAVSAFAKAVANLCNKSSVHNADTLMNLVQSRPPGVPLITVSNHMSTLDDPVMWGAFKGLLSLDPELARWVLAAEDICFRNPIFSYIFRTGKCIPITRGGGIYQENMNEALQRLKDGSWLHTFPEGKVFQDDVPIRRLKWGTASLIARSPVTPIVLPIIHRGFEEMMPENYNNGRRPLVPLPNKHLKVVVGEPIEFDVPMMVETAVLDSRHVTPPLQEVKWPVLTSAGQVLDETAQRHLYIALSEKIQSSLETLRLLAKRL | failed |
| MGKKELKRGLVVDREAQMIGVYLFEDGKTYRGIPRGKVLKKTKIYAGDYVWGEVVDPNTFAIEEVEERKNLLIRPKVANVDRVIIVETLKMPEFNNYLLDNMLVVYEYFKVEPVIVFNKIDLLNEEEKKELERWISIYRDAGYDVLKVSAKTGEGIDELVDYLEGFICILAGPSGVGKSSILSRLTGEELRTQEVSEKTERGRHTTTGVRLIPFGKGSFVGDTPGFSKVEATMFVKPREVRNYFREFLRYQCKYPDCTHTNEPGCAVKEAVKNGEISCERYKSYLKIIKVYLEEIKELCRED | not failed |
| MGKKQKMKKAAQMATAAEKLKTAAEKSKTAADNVVAKEKPAEEASPSPSGSGKKGKPKATQKPNVAKALQKEISSSEDALDVKNKPPAGFSGAKGKPHIMGQMDPAYRNKIKKLMSLAKQLPPNVFSLPNSQKEEGASAAKSCVVEDDQSTDSDDAPDLVEADPKETQPDEQGQLGTVAVRTREVSKQSRGERKARRILMKLDLKPMENVARVTMKKGKNILLYIDQPDVYRVAHSSTYIFFGEICVEDTSTTSVASQAAVKAAERFRGTSPAGRQGNEDGKAPGEESPHDDDDDENDGEDADAMGLHAKDIELVQMQAACSRKKAIQALLKNDNDVVNAIMALTVG | failed |
